In the supplement of paper PMC7125110:
± gives the standard error. Variants at the floor of the assay were thinned out.

B1: glmS ribozyme (parent)
chain: AUAAAAGCGCCAGAACUACAGAAAUGUAGUUGACGAGGAGGAGGUUUAUCGAAUUUUCGGCGGAUGCCUCCAAA

Variants of: B1
Test: self-cleavage kobs at 2500 uM GlcN6P; higher = faster cleavage; RNA array
Conditions: with glucosamine-6-phosphate
How it was run: (§1)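 Over ~14 h at 37 °C, tiles were imaged as glucosamine-6-phosphate (40 μM to 10 mM) in HEPES/KCl/Mg(OAc)2 buffer flowed across sequenced MiSeq chips. The chips carried barcoded ribozyme variants transcribed in situ by E. coli RNA polymerase and tracked with a hybridised Cy3 probe. After normalisation to baseline and to non-cleaving reference variants, one- or two-exponential decay fits of per-tile medians gave kobs. kcat and KM followed from weighted Michaelis–Menten fits across concentrations.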

Variant	self-cleavage kobs at 2500 uM GlcN6P [s⁻¹]
AUAAAAGCGCCAGAACUACAGAAAUGUAGUUGACGAUGAGGAGGUUUAUCCGAUUUUCGGUGGAUGUCUCCAAA	< 1e-05
AUAAAAGCGCCAGAACUACAGAAAUGUAGUUGACGAGGAGGAGGUUUGUCGAAUUAUCGGCGGAUGCCGCCAAA	7.7e-05 ± 2.2e-05
AUAAAAGCACCAGAAGUACAGAAAUGUAGUUGCCGAGGAGGAGGUUUAUCUAAAUUUUGGCGGAUGCCUCCAAA	< 1e-05
AUAAAGGCGCCAGAACUACAGAAAUGUACUUGCCGAGGAGGAGGUUGAUCGAAUUUUCGGCGGAUGCCUCCAAA	< 1e-05
AUAAAAGCGCCAGAUCUACAGAAAUGUAGUUGACGAGGAGGAGGUUUAUCGAAGUUUAGGCGGAUGCCUCCAAA	3.84e-05 ± 1.4e-05
AUAAAAGCGCCAGAACUACAGAAAUGUAGUAGACGAGGAGGAGGUUUAUCGGAUUUUCGGCGGAUGCCUGCAAA	5.02e-05 ± 1.1e-05
AUAAAAGCGACUGAACUACAGAAAUGUAGUUGACGAUGAGGAGGAUUAUCGAAUUUUCGGCGGAUGCCUCCAAA	< 1e-05
AUAAAAGCGCCAGAACUACAGAAAUGUAGUUGACGAGGAGGAGGUUUAUCGAAUUUUCGGCGGAUGCCCUGAAA	3.82e-05 ± 1.3e-05
AUAAAAGCGCCAAAACUACAGAAAUGUAGGUGACGAGGAGGAGGUUUAUCGAUUUUUCGGCGGAUGCCUCCAAA	0.000141 ± 4.4e-05
AUAAAAUUGCCAGAACUACAGAAAUGUAGUUGACGAGGAGGAGGUUUAUCGGAUUUUCGGCGGAUGCCUCCAAA	< 1e-05
AUAAAAGCGCCAGAACUACAGAAAUGUAGUUUAAGAGGAGGACGUUUAUCGAAUUUUCGGCGGAUGCCUCGAAA	< 1e-05
AUAAAAGCUCCAGAACUACAGAAAUGUAGUUGACGGGGAGGAGGUUUAACGAAUUUUCGGCUGAUGUCUGCAAA	< 1e-05
AUAAAAGCGCCACAACUACAGAAAUGUAGUUGACGCGGAGGAGGUUUAUCGAAUUUUCGGCGGAUGCCUCUAAA	< 1e-05
AUAAAAGCGCCAGAACUACAAAAAUGUAGUUGACGAGGAGGAGGUUUCUCGAAUUUUCGGCGGAUGCCUCCAAA	0.000242 ± 7.9e-05
AUAAAAGCGCCAGAACUACAGAAAUGUAGUUGACGAAGAGGAGGUUUAUCGAAUUUUCGGCGGAUGCAUUCAAA	< 1e-05
AUAAAAGCGCUAGAACUACAGAAAUGUAAUUGACGAGGAGGAGGUUUAUCGAAUUUUCGGCGGAUGCCUCGAAA	8.63e-05 ± 3e-05

Variant	self-cleavage kobs at 2500 uM GlcN6P [s⁻¹]
AUAAAAGCGCCAGAACUACAGAAAUGUAGUUAACGAGUAGGAGGUUUAUCGACUCUUCGCCGGAUGCCUCUAAA	< 1e-05
AUAAAAGCGCCUGAACUACAGAAAUGUAGUUGUCGAGGAGGAGGUUUAACGAAUUUUCGGCGGAUGCAUCCAAA	< 1e-05
AUAAAAGCGCCAAAACUACAGAAAUGUAGUUGACGAGGAGGAGCUAUAUCGAGUUUUCGGCGGAUGCCUCCAAA	< 1e-05
AUAAAUGCGGCAGAACUACAGAAAUGUAGUUGACGAGGAGGAGGUUUAUGGGAUAUUCGGCGGAUGCAUCCAAA	0.000313 ± 7.4e-05
AUAAAAGCGUCAGAACUACAGAAAUGUAGUUAACGAAGAGGUGGUUUAUAGAAUUUUCGGCGGAUGCCGCCAAA	< 1e-05
AUAAAAGCGCCAGAACUACAGAAAUGUAGUUGACGAGGAGGAGGUUUAUCGAAUGUUCGGCGGACGCCUCCAAA	0.000396 ± 8.6e-05
AUAAAAGCGUCAGUACUACAGAAAUGUAGUUGACGAGGAGGAGUUUUAUCGAAUUUUCGGUGGAUGCCUCCAAA	< 1e-05
AUAAAUGCGCAAGAACUACAGAAAUGUAGUUGACGAGGAGGAGGUUUAUCGAAUUUUCGGCAGAUGCCUCCAAA	< 1e-05
AUAAAAGGGACAGAACUACAGAAAUGUAGUUGACGAGGAGGAGUUUUAUCGAAUUUUCGGCGGAUGCCUCCAAA	< 1e-05
AUAAAAGCCCCAGAACUACAGAAAUGUAGUUGACGAGAAGGAGGUUUAUCGUAUUUUCGGCGGAUGCCUCCAAA	< 1e-05
AUAAAAGCGCCAGAACUACAGAAAUGUAGUUGAAGAGGAGGAGCUUUAUCGAAUUUUCUGCGAAUGCCUCCAAA	< 1e-05
AUAAAAGUGCCAGAACUACAGAAAUGUAGUUAUCCAUGUGGAGGUUUAUCCAAUUUUCGCCGGAUGCCUCCAAA	< 1e-05
AUAAAAGCGCCAGACCUACAGAAAUGUAGUUGACGAGGAGGAGGGUUAUCGAAAUUUCGGCGGAUGCCUCCAAA	0.000589 ± 0.00012
AUAAACGCGCCUGAACUACAGAAAUGUAGUUGACGAGGAGGAGGUUUAUGCAAAUUUCGGCGGAUGCCUCCAAA	< 1e-05
AUAAAAGCGCCAGAACUACAGAAAUGUAGGUGACGAGGAGGGGGUUUAUCGAAUUUUCGGCGGAUUCCUCAAAA	4.6e-05 ± 2.2e-05
AUAAAAGCGCCAGAACUACAGAAAUGUAGUUGCCGAGCAGGAGGUUUGUCGAAUUCUCGGCGGAUGCCUCCAAA	< 1e-05

Variants of: B1
Test: self-cleavage kobs at 10000 uM GlcN6P; higher = faster cleavage; RNA array
Conditions: with glucosamine-6-phosphate
How it was run: as §1

Variant	self-cleavage kobs at 10000 uM GlcN6P [s⁻¹]
AUAAAAGCGCCAGAACUACAGAAAUGUAGUAGACGAGGAGGAGGUUUAUCGGAUUUUCGGCGGAUGCCUGCAAA	6.16e-05 ± 1.8e-05
AUAAAAGCGCCAGAACUACAGAAAUGUAGUUUAAGAGGAGGACGUUUAUCGAAUUUUCGGCGGAUGCCUCGAAA	< 1e-05
AUAAAAGCGCCUGAACUACAGAAAUGUAGUUGUCGAGGAGGAGGUUUAACGAAUUUUCGGCGGAUGCAUCCAAA	< 1e-05
AUAAAAGCGCCAGAACUACAGAAAUGUAGUUGACGAGGAGGAGGUUUAUCGAAUGUUCGGCGGACGCCUCCAAA	0.000628 ± 0.00013
AUAAAAGCCCCAGAACUACAGAAAUGUAGUUGACGAGAAGGAGGUUUAUCGUAUUUUCGGCGGAUGCCUCCAAA	< 1e-05
